Results as given in US20260042834A1 (HBM ALPHA THERAPEUTICS, published 2026).
Numbering of substitutions follows the chain as printed. Each block holds one binder with its values, some of them ahead of it.

How the values were obtained:
[1] = biological target: T1, corticotropin-releasing hormone (CRH) peptide (human and mouse, not fully specified); assay: cell-based or functional assay
T1 peptide: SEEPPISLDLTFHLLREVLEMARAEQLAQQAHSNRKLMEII

CRH (NT-Biotin) [2] = biological target: T2, CRH (NT-Biotin) (human and mouse, not fully specified; biotin at the N-terminus); assay: ELISA, N-terminally biotinylated CRH on streptavidin-coated plate
T2 construct: also called Biotin-CRH; N-terminally biotinylated corticotropin-releasing hormone
T2 peptide: T1 peptide
Experimental: (§1) Streptavidin (Thermo, Cat: 21125) was diluted in PBS to a concentration of 2 μg/ml. 100 μl of diluted streptavidin was added per well to ELISA microplates, and the plates were incubated overnight at 4° C. […] 100 μL of 3,3′,5,5′-tetramethylbenzidine (TMB) substrate (Biopanda, Cat: TMB-S-003) was added, and the plates were incubated at room temperature for 15 minutes. 100 μL of ELISA stopping solution (Solarbio, Cat #: C1058) was added to terminate the reaction, and the optical density at 450 nm (OD450 nm) was determined by an ELISA plate reader (Molecular Devices, Spectra max 384 plus).

CRH (CT-Biotin) [3] = biological target: T3, CRH (CT-Biotin) (human and mouse, biotin on the added C-terminal K (-K-Biotin)); assay: ELISA, C-terminally biotinylated CRH on streptavidin-coated plate
T3 construct: also called Peptide 4 (CRH-Biotin); C-terminally biotinylated corticotropin-releasing hormone
T3 peptide: T1 peptide
Experimental: as §1

CRH (CT-Biotin) [4] = biological target: T4, CRH (CT-Biotin) (human and mouse (same sequence), biotin on an added C-terminal K (CRH-K-Biotin)); assay: ELISA, biotinylated CRH on streptavidin plate
T4 construct: also called Peptide 4 (CRH-Biotin)
T4 peptide: T1 peptide
Experimental: as §1

CRH (NT-Biotin) [5] = biological target: T5, CRH (NT-Biotin) (human and mouse (same sequence), not fully specified; biotin at the N-terminus); assay: ELISA, biotinylated CRH on streptavidin plate
T5 peptide: T1 peptide
Experimental: as §1

[6] = biological target: T6, corticotropin-releasing hormone (CRH) peptide (human and mouse (same sequence), not fully specified); assay: cell-based or functional assay
T6 peptide: T1 peptide

EC50 (CRH (CT-Biotin) [4]): 0.01 nM
EC50 (CRH (NT-Biotin) [5]): 0.021 nM
hCRHR1 Luciferase Reporter Assay IC50 [6]: 0.572 nM
mCrhr1 Luciferase Reporter Assay IC50 [6]: 2.7 nM
B3: PR302050 (antibody, human IgG1, kappa, V domains shown)
VH: EMQLVESGGGLVQPGGSLKLSCAASGFTFSNYWMNWVRQASGKGLEWVAEIRLKSNNYATHYAESVKGRFTISRDDSKSTVYLQMNSLKTEDTAVYYCTVGTLVYWGQGTLVTVSS
VL: DIVLTQSPDSLAVSLGERATINCRASQSVSTSTYNYMHWFQQKPGQPPKLLIKFASNLESGVPDRFSGSGSGTDFTLTISSLQAEDTAVYYCQHSWEIPYTFGQGTKLEIKR
notes: humanized variant of PR301777

EC50 (CRH (CT-Biotin) [4]): 0.03 nM
EC50 (CRH (NT-Biotin) [5]): 0.046 nM
hCRHR1 Luciferase Reporter Assay IC50 [6]: 3.87 nM
mCrhr1 Luciferase Reporter Assay IC50 [6]: 9.97 nM
B4: PR302043 (antibody, human IgG1, kappa, V domains shown)
VH: B3 VH with M2V, A49G, S79N, V81A, V100R
VL: B3 VL
notes: humanized variant of PR301777

EC50 (CRH (CT-Biotin) [4]): 0.013 nM
hCRHR1 Luciferase Reporter Assay IC50 [6]: 1.35 nM
mCrhr1 Luciferase Reporter Assay IC50 [6]: 4.67 nM
B5: PR302055 (antibody, human IgG1, kappa, V domains shown)
VH: B3 VH
VL: DIQLTQSPSSLSASVGDRVTITCRASQSVSTSTYNYMHWFQQKPGKAPKLLIKFASNLESGVPSRFSGSGSGTDFTLTISSLQPEDTATYYCQHSWEIPYTFGQGTKLEIKR
notes: humanized variant of PR301777

EC50 (CRH (CT-Biotin) [4]): 0.027 nM
EC50 (CRH (NT-Biotin) [5]): 0.03 nM
hCRHR1 Luciferase Reporter Assay IC50 [6]: 2.65 nM
mCrhr1 Luciferase Reporter Assay IC50 [6]: 13.9 nM
B6: PR302029 (antibody, human IgG1, kappa, V domains shown)
VH: B3 VH with M2V, K19R, S41P, A49G, S79N, T80S, V81L
VL: B3 VL
notes: humanized variant of PR301777

hCRHR1 Reporter IC50 [1]: 1.37 nM
EC50 (CRH (NT-Biotin) [2]): 0.025 nM
EC50 (CRH (CT-Biotin) [3]): ~0.011 nM
B10: PR302312 (antibody, human IgG1, kappa, V domains shown)
VH: EVQLQQSGPELVKPGASVKMSCKASGYTFTDYFMKWMKQSHGKSLEWIGVINPNNGDTFYNQNFKGKATLTVDKSSSTAYMQLNSLTSEDSAVYYCTRGTARALFAYWGQGTLVTVSA
VL: DVLMTQTPLSLPVSLGDQASISCRSSQSIVHSDGNTYLEWYLQRPGQSPKLLIYKVSNRFSGVPDRFSGSGSGTDFTLKISRVGAEDLGVYYCFQGSHVPWTFGGGTKLEVKR
notes: Mouse variable domains, expressed recombinantly with human IgG1 wildtype Fc; also called Series 10 mAb

hCRHR1 Reporter IC50 [1]: 0.503 nM
EC50 (CRH (NT-Biotin) [2]): 0.023 nM
EC50 (CRH (CT-Biotin) [3]): 0.017 nM
B11: PR302341 (antibody, human IgG1, kappa, V domains shown)
VH: B10 VH with M37V, K43E, T58I, N63K, Y80F, Y95S, T97A, A101D, T115A
VL: B10 VL with S26G, K50R, V90I, V99I
notes: as for B10

Continued, binder first:

B1: PR301803 (antibody, human IgG1, kappa, V domains shown)
VH: EVKLEESGGGLVQPGGSMKLSCVASGFTFNNYWMNWVRQSPEKGLEWVAEIRLKSNNYATHYAESLKGRFTISRDDSKSSVYLQMNNLRAEDTGIYYCTVGTLVYWGQGTLVTVSA
VL: DIVLTQSPASLVVSLGQRATISCRASQSVSTSTYNYMHWYQQKPGQPPKLLIKFASNLESGVPARFSGSGSGTDFTLNIHPVEEEDTATFYCQHSWEIPYTFGGGTKLEIKR
notes: Mouse variable domains, expressed recombinantly with human IgG1 wildtype Fc; also called Series 5 mAb
hCRHR1 Reporter IC50 [1]: 1.04 nM
EC50 (CRH (NT-Biotin) [2]): 0.021 nM
EC50 (CRH (CT-Biotin) [3]): 0.013 nM

B2: PR302036 (antibody, human IgG1, kappa, V domains shown)
VH: B3 VH with K19R, S41P, T80S
VL: B3 VL
notes: humanized variant of PR301777
EC50 (CRH (CT-Biotin) [4]): 0.033 nM
EC50 (CRH (NT-Biotin) [5]): 0.04 nM
hCRHR1 Luciferase Reporter Assay IC50 [6]: 1.4 nM
mCrhr1 Luciferase Reporter Assay IC50 [6]: 3.03 nM

B7: PR301806 (antibody, human IgG1, kappa, V domains shown)
VH: QVQLQQPGAELVKPGTSVKMSCKASGYTFTSYWMHWVKQRPGQGLEWIGDIYPGSDSTNYNEKFKSKASLTVDTSSSTAYMQLSSLTSEDSAVYYCARSITTTTFWYFDVWGAGTTVTVSS
VL: B10 VL with I29F, H31Y, D33N, E39Q, R44K, G84E, W101P, G105A, V111L
notes: Mouse variable domains, expressed recombinantly with human IgG1 wildtype Fc; also called Series 6 mAb
hCRHR1 Reporter IC50 [1]: 4.53 nM
EC50 (CRH (NT-Biotin) [2]): 0.013 nM
EC50 (CRH (CT-Biotin) [3]): 0.006 nM

B8: PR301780 (antibody, human IgG1, kappa, V domains shown)
VH: QIQLVQSGPELKKPGETVKISCKASGYTFTNFGLNWVKQAPGKGLKWMGWINTYTGEPTYTDDFKGRFAFSLETSASTAYLQINNLKKEDTATYFCARGTYRDDGAWFAYWGQGTLVTVSA
VL: B10 VL with S28I, D33N, R44K, G84E, Y92H, V111I
notes: Mouse variable domains, expressed recombinantly with human IgG1 wildtype Fc; also called Series 7 mAb
hCRHR1 Reporter IC50 [1]: 61.1 nM
EC50 (CRH (NT-Biotin) [2]): 0.938 nM
EC50 (CRH (CT-Biotin) [3]): 0.03 nM

B9: PR302324 (antibody, human IgG1, kappa, V domains shown)
VH: B10 VH with M37V, K43G, N52S, N63K, Y80F, Y95S, T97A, A101D
VL: B10 VL with V99I
notes: as for B10
hCRHR1 Reporter IC50 [1]: 0.498 nM
EC50 (CRH (NT-Biotin) [2]): 0.019 nM
EC50 (CRH (CT-Biotin) [3]): 0.016 nM
